Data as given in US20140363428A1 (Chugai, published 2014).
Substitutions are numbered along the chain they refer to.

B1: IgG1-F1271 (antibody)
heavy: QVQLQESGPGLVKPSETLSLTCAVSGHSISHDHAWSWVRQPPGEGLEWIGFISYSGITNYNPSLQGRVTISRDNSKNTLYLQMNSLRAEDTAVYYCARSLARTTAMDYWGEGTLVTVSSASTKGPSVFPLAPSSKSTSGGTAALGCLVKDYFPEPVTVSWNSGALTSGVHTFPAVLQSSGLYSLSSVVTVPSSSLGTQTYICNVNHKPSNTKVDKKVEPKSCDKTHTCPPCPAPELRGGPKVFLFPPKPKDTLYIARTPEVTCVVVDVSHEDPEVKFNWYVDGVEVHNAKTKPREEQYNSTYRVVSVLTVLHQDWLNGKEYKCKVSNKALPAPIEKTISKAKGQPREPQVYTLPPSRDELTKNQVSLTCLVKGFYPSDIAVEWESNGQPENNYKTTPPVLDSDGSFFLYSKLTVDKSRWQQGNVFSCSVMHEALDYHVTRKELSLSP
light: not shown
notes: EU numbering; copies: 2 + 2
B2: IgG1-F1284 (antibody)
heavy: B1 heavy with A256S, T258N, R440K, E442D
light: not shown
notes: EU numbering; copies: 2 + 2
B3: IgG1-F1320 (antibody)
heavy: B1 heavy with A256T, D435H, E442D
light: not shown
notes: EU numbering; copies: 2 + 2
B4: IgG1-F1290 (antibody)
heavy: B1 heavy with A256S, T258E, R440K, E442D
light: not shown
notes: EU numbering; copies: 2 + 2
B5: IgG1-F1340 (antibody)
heavy: B1 heavy with A256T, T258E, D435H, R440K
light: not shown
notes: EU numbering; copies: 2 + 2
B6: IgG1-F1283 (antibody)
heavy: B1 heavy with A256S, T258N
light: not shown
notes: EU numbering; copies: 2 + 2
B7: IgG1-F1318 (antibody)
heavy: B1 heavy with R237L, A256S, P331R, D435H, R440Q, E442S
light: not shown
notes: EU numbering; copies: 2 + 2
B8: IgG1-F1330 (antibody)
heavy: B1 heavy with G238R, A256S, T258E, D435H
light: not shown
notes: EU numbering; copies: 2 + 2
B9: IgG1-F1314 (antibody)
heavy: B1 heavy with A256S, R440L, E442L
light: not shown
notes: EU numbering; copies: 2 + 2
B10: IgG1-F1291 (antibody)
heavy: B1 heavy with A256S, R440Q, E442S
light: not shown
notes: EU numbering; copies: 2 + 2
B11: IgG1-F1293 (antibody)
heavy: B1 heavy with A256S, T258E, D435H, V438Y
light: not shown
notes: EU numbering; copies: 2 + 2
B12: IgG1-F1325 (antibody)
heavy: B1 heavy with L236A, R237A, K241S, A256S, N299A, D435H, R440Q, E442S
light: not shown
notes: EU numbering; copies: 2 + 2
B13: IgG1-F1304 (antibody)
heavy: B1 heavy with A256S, T258E, V438F, R440K, E442D
light: not shown
notes: EU numbering; copies: 2 + 2
B14: IgG1-F1329 (antibody)
heavy: B1 heavy with G238R, A256T, D435H
light: not shown
notes: EU numbering; copies: 2 + 2
B15: IgG1-F1274 (antibody)
heavy: B1 heavy with A256S, T258Q
light: not shown
notes: EU numbering; copies: 2 + 2
B16: IgG1-F1331 (antibody)
heavy: B1 heavy with G238R, A256T, T258E, D435H
light: not shown
notes: EU numbering; copies: 2 + 2
B17: IgG1-F1308 (antibody)
heavy: B1 heavy with A256S, V424L, S426L, D435H, R440Q, E442S
light: not shown
notes: EU numbering; copies: 2 + 2
B18: IgG1-F1272 (antibody)
heavy: B1 heavy with R440K, E442D
light: not shown
notes: EU numbering; copies: 2 + 2
B19: IgG1-F1292 (antibody)
heavy: B1 heavy with Y254M, A256S, Y436W
light: not shown
notes: EU numbering; copies: 2 + 2
B20: IgG1-F1338 (antibody)
heavy: B1 heavy with A256S, T258E, R440K
light: not shown
notes: EU numbering; copies: 2 + 2
B21: IgG1-F1295 (antibody)
heavy: B1 heavy with A256S, T258E, D435H, V438F
light: not shown
notes: EU numbering; copies: 2 + 2
B22: IgG1-F1333 (antibody)
heavy: B1 heavy with G238R, A256S, D435H, R440Q, E442S
light: not shown
notes: EU numbering; copies: 2 + 2
B23: IgG1-F1337 (antibody)
heavy: B1 heavy with A256S, T258E, D435H, R440K
light: not shown
notes: EU numbering; copies: 2 + 2
B24: IgG1-F1315 (antibody)
heavy: B1 heavy with R237L, G239K, A256S, D435H, R440Q, E442S
light: not shown
notes: EU numbering; copies: 2 + 2
B25: IgG1-F1311 (antibody)
heavy: B1 heavy with A256S, V424A, S426A, R440Q, E442S
light: not shown
notes: EU numbering; copies: 2 + 2
B26: IgG1-F1307 (antibody)
heavy: B1 heavy with A256S, V424A, S426A, D435H, R440Q, E442S
light: not shown
notes: EU numbering; copies: 2 + 2
B27: IgG1-F1276 (antibody)
heavy: B1 heavy with A256S, T258A, D435H, R440K, E442D
light: not shown
notes: EU numbering; copies: 2 + 2
B28: IgG1-F1302 (antibody)
heavy: B1 heavy with A256S, T258E, V438Y, R440K, E442D
light: not shown
notes: EU numbering; copies: 2 + 2
B29: IgG1-F1309 (antibody)
heavy: B1 heavy with A256S, D435H, R440A, E442A
light: not shown
notes: EU numbering; copies: 2 + 2
B30: IgG1-F1279 (antibody)
heavy: B1 heavy with A256S, T258G, D435H, R440K, E442D
light: not shown
notes: EU numbering; copies: 2 + 2
B31: IgG1-F1285 (antibody)
heavy: B1 heavy with A256T, D435H, R440K, E442D
light: not shown
notes: EU numbering; copies: 2 + 2
B32: IgG1-F1273 (antibody)
heavy: B1 heavy with A256S, T258Q, D435H, R440K, E442D
light: not shown
notes: EU numbering; copies: 2 + 2
B33: IgG1-F1336 (antibody)
heavy: B1 heavy with G238R, A256S, T258E, D435H, R440K, E442D
light: not shown
notes: EU numbering; copies: 2 + 2
B34: IgG1-F1275 (antibody)
heavy: B1 heavy with A256S, T258Q, R440K, E442D
light: not shown
notes: EU numbering; copies: 2 + 2
B35: IgG1-F1282 (antibody)
heavy: B1 heavy with A256S, T258N, D435H, R440K, E442D
light: not shown
notes: EU numbering; copies: 2 + 2
B36: IgG1-F1341 (antibody)
heavy: B1 heavy with A256T, D435H, V438T, R440K
light: not shown
notes: EU numbering; copies: 2 + 2
B37: IgG1-F1298 (antibody)
heavy: B1 heavy with A256S, T258E, V438F
light: not shown
notes: EU numbering; copies: 2 + 2
B38: IgG1-F1277 (antibody)
heavy: B1 heavy with A256S, T258A
light: not shown
notes: EU numbering; copies: 2 + 2
B39: IgG1-F1316 (antibody)
heavy: B1 heavy with R237L, G239R, A256S, D435H, R440Q, E442S
light: not shown
notes: EU numbering; copies: 2 + 2
B40: IgG1-F1286 (antibody)
heavy: B1 heavy with A256T
light: not shown
notes: EU numbering; copies: 2 + 2
B41: IgG1-F1280 (antibody)
heavy: B1 heavy with A256S, T258G
light: not shown
notes: EU numbering; copies: 2 + 2
B42: IgG1-F1335 (antibody)
heavy: B1 heavy with G238R, A256T, D435H, R440K, E442D
light: not shown
notes: EU numbering; copies: 2 + 2
B43: IgG1-F1321 (antibody)
heavy: B1 heavy with A256T, D435H, R440K
light: not shown
notes: EU numbering; copies: 2 + 2
B44: IgG1-F1289 (antibody)
heavy: B1 heavy with A256S, T258E
light: not shown
notes: EU numbering; copies: 2 + 2
B45: IgG1-F1334 (antibody)
heavy: B1 heavy with G238R, A256S, D435H, R440K, E442D
light: not shown
notes: EU numbering; copies: 2 + 2
B46: IgG1-F1319 (antibody)
heavy: B1 heavy with R237L, K241S, A256S, L330Y, D435H, V438Y, R440Q, E442S
light: not shown
notes: EU numbering; copies: 2 + 2
B47: IgG1-F1305 (antibody)
heavy: B1 heavy with A256S, E442D
light: not shown
notes: EU numbering; copies: 2 + 2
B48: IgG1-F1328 (antibody)
heavy: B1 heavy with G238R, A256S, D435H
light: not shown
notes: EU numbering; copies: 2 + 2
B49: IgG1-F1317 (antibody)
heavy: B1 heavy with R237L, A256S, P331K, D435H, R440Q, E442S
light: not shown
notes: EU numbering; copies: 2 + 2
B50: IgG1-F1300 (antibody)
heavy: B1 heavy with A256S, T258E, D435H, V438T, R440K, E442D
light: not shown
notes: EU numbering; copies: 2 + 2
B51: IgG1-F1339 (antibody)
heavy: B1 heavy with A256T, T258E, V438T, R440K
light: not shown
notes: EU numbering; copies: 2 + 2
B52: IgG1-F1296 (antibody)
heavy: B1 heavy with A256S, T258E, V438Y
light: not shown
notes: EU numbering; copies: 2 + 2
B53: IgG1-F1323 (antibody)
heavy: B1 heavy with A256T, R440K
light: not shown
notes: EU numbering; copies: 2 + 2
B54: IgG1-F1324 (antibody)
heavy: B1 heavy with L236A, R237A, K241S, A256S, D435H, R440Q, E442S
light: not shown
notes: EU numbering; copies: 2 + 2
B55: IgG1-F1312 (antibody)
heavy: B1 heavy with A256S, V424L, S426L, R440Q, E442S
light: not shown
notes: EU numbering; copies: 2 + 2
B56: IgG1-F1310 (antibody)
heavy: B1 heavy with A256S, D435H, R440L, E442L
light: not shown
notes: EU numbering; copies: 2 + 2
B57: IgG1-F1281 (antibody)
heavy: B1 heavy with A256S, T258G, R440K, E442D
light: not shown
notes: EU numbering; copies: 2 + 2
B58: IgG1-F1306 (antibody)
heavy: B1 heavy with A256S, R440K
light: not shown
notes: EU numbering; copies: 2 + 2
B59: IgG1-F1313 (antibody)
heavy: B1 heavy with A256S, R440A, E442A
light: not shown
notes: EU numbering; copies: 2 + 2
B60: IgG1-F1288 (antibody)
heavy: B1 heavy with A256S, T258E, D435H, R440K, E442D
light: not shown
notes: EU numbering; copies: 2 + 2

Molecular target: T1, soluble human FcRn (human, UniProt P55899 24-297; P61769 21-119)
T1 construct: Heterodimer of FcRn alpha chain and beta2-microglobulin; also called hFcRn
Assay: SPR (Biacore T100), antibody captured by protein L, hFcRn as analyte, pH 7.0, 25 C;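 further: KD calculated from fitted association and dissociation rate constants of the sensorgrams, protein L amine-coupled to the sensor chip, sodium phosphate running buffer with NaCl and Tween20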
Experimental: An appropriate amount of protein L (ACTIGEN) was immobilized onto Sensor chip CM4 (GE Healthcare) by the amino coupling method, and the chip was allowed to capture an antibody of interest. Then, diluted FcRn solutions and running buffer (as a reference solution) were injected to allow human FcRn to interact with the antibody captured on the sensor chip. The running buffer used comprised 50 mmol/l sodium phosphate, 150 mmol/l NaCl, and 0.05% (w/v) Tween20 (pH 7.0). FcRn was diluted using each buffer. The chip was regenerated using 10 mmol/l glycine-HCl (pH 1.5). Assays were carried out exclusively at 25 degrees C. The association rate constant ka (1/Ms) and dissociation rate constant kd (1/s), both of which are kinetic parameters, were calculated based on the sensorgrams obtained in the assays, and KD (M) of each antibody for human FcRn was determined from these values. Each parameter was calculated using Biacore T100 Evaluation Software (GE Healthcare).

Row | Kd | Binder
1 | 200 nM | B1
2 | 110 nM | B2
3 | 120 nM | B3
4 | 110 nM | B4
5 | 56 nM | B5
6 | 130 nM | B6
7 | 140 nM | B7
8 | 100 nM | B8
9 | 230 nM | B9
10 | 150 nM | B10
11 | 160 nM | B11
12 | 210 nM | B12
13 | 120 nM | B13
14 | 130 nM | B14
15 | 250 nM | B15
16 | 77 nM | B16
17 | 210 nM | B17
18 | 170 nM | B18
19 | 420 nM | B19
20 | 100 nM | B20

Row | Kd | Binder
21 | 98 nM | B21
22 | 120 nM | B22
23 | 74 nM | B23
24 | 150 nM | B24
25 | 170 nM | B25
26 | 140 nM | B26
27 | 100 nM | B27
28 | 220 nM | B28
29 | 130 nM | B29
30 | 120 nM | B30
31 | 94 nM | B31
32 | 150 nM | B32
33 | 72 nM | B33
34 | 210 nM | B34
35 | 77 nM | B35
36 | 320 nM | B36
37 | 150 nM | B37
38 | 170 nM | B38
39 | 150 nM | B39
40 | 160 nM | B40

Row | Kd | Binder
41 | 210 nM | B41
42 | 88 nM | B42
43 | 100 nM | B43
44 | 130 nM | B44
45 | 100 nM | B45
46 | 270 nM | B46
47 | 200 nM | B47
48 | 150 nM | B48
49 | 140 nM | B49
50 | 160 nM | B50
51 | 250 nM | B51
52 | 230 nM | B52
53 | 150 nM | B53
54 | 130 nM | B54
55 | 180 nM | B55
56 | 230 nM | B56
57 | 170 nM | B57
58 | 190 nM | B58
59 | 180 nM | B59
60 | 79 nM | B60
